# Results: paper PMC1931440
# Target: murine type IV collagen (murine) (UniProt P02463)
# Experiment: adherence of recombinant bacteria to collagen-coated wells; intact E. coli EPI300 expressing Hag (~10^7 CFU in PBS with 0.15% gelatin) added to BioCoat murine type IV collagen wells with tissue culture medium; centrifuged 165 x g 5 min; 1 hr at 37°C, 7.5% CO2; washed five times; fixed, crystal violet; bacteria counted per microscopic field, normalized by CFU; negative control E. coli with pCC1.3
# UniProt P02463, sequence (P02463 173-1669, chain 1 of 2): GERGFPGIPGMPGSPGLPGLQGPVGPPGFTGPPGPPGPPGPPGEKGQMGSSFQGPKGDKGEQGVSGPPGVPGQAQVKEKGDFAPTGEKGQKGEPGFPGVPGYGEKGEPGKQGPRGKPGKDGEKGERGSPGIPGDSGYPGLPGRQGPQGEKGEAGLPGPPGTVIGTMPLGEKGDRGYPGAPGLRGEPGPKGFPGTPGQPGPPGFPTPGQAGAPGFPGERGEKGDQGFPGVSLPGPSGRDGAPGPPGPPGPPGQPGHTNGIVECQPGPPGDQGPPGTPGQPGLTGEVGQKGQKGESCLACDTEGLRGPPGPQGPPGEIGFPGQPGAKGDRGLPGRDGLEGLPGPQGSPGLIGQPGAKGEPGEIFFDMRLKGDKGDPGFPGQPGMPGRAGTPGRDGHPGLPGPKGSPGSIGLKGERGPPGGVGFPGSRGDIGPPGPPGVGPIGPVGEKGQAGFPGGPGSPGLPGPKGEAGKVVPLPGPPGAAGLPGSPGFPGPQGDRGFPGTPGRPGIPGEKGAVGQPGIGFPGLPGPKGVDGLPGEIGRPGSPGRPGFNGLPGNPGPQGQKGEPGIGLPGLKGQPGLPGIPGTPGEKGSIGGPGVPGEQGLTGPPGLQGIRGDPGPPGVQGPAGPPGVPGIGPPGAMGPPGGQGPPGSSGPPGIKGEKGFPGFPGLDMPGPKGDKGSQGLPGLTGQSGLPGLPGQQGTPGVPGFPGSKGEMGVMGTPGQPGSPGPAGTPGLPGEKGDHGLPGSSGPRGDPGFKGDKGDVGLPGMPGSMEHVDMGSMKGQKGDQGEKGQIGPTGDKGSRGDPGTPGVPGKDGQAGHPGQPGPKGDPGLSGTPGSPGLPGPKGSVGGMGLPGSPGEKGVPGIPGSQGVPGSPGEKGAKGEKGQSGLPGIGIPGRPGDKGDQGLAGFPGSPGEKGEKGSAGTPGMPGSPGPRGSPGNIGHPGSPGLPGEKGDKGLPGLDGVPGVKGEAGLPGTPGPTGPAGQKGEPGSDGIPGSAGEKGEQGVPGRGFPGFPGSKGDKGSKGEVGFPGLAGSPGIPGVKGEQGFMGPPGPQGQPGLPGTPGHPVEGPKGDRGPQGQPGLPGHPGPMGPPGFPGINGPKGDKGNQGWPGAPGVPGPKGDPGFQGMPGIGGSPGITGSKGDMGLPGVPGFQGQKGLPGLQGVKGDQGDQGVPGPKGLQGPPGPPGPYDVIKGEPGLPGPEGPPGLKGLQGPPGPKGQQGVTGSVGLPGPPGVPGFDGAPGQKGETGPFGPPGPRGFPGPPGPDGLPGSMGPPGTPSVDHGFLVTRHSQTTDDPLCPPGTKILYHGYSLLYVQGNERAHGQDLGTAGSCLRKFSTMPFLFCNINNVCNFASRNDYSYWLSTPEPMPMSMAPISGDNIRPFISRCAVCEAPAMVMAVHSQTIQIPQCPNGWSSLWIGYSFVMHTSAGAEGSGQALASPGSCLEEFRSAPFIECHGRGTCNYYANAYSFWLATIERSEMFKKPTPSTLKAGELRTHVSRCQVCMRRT
# UniProt P02463, sequence (P08122 184-1707, chain 2 of 2, further chain): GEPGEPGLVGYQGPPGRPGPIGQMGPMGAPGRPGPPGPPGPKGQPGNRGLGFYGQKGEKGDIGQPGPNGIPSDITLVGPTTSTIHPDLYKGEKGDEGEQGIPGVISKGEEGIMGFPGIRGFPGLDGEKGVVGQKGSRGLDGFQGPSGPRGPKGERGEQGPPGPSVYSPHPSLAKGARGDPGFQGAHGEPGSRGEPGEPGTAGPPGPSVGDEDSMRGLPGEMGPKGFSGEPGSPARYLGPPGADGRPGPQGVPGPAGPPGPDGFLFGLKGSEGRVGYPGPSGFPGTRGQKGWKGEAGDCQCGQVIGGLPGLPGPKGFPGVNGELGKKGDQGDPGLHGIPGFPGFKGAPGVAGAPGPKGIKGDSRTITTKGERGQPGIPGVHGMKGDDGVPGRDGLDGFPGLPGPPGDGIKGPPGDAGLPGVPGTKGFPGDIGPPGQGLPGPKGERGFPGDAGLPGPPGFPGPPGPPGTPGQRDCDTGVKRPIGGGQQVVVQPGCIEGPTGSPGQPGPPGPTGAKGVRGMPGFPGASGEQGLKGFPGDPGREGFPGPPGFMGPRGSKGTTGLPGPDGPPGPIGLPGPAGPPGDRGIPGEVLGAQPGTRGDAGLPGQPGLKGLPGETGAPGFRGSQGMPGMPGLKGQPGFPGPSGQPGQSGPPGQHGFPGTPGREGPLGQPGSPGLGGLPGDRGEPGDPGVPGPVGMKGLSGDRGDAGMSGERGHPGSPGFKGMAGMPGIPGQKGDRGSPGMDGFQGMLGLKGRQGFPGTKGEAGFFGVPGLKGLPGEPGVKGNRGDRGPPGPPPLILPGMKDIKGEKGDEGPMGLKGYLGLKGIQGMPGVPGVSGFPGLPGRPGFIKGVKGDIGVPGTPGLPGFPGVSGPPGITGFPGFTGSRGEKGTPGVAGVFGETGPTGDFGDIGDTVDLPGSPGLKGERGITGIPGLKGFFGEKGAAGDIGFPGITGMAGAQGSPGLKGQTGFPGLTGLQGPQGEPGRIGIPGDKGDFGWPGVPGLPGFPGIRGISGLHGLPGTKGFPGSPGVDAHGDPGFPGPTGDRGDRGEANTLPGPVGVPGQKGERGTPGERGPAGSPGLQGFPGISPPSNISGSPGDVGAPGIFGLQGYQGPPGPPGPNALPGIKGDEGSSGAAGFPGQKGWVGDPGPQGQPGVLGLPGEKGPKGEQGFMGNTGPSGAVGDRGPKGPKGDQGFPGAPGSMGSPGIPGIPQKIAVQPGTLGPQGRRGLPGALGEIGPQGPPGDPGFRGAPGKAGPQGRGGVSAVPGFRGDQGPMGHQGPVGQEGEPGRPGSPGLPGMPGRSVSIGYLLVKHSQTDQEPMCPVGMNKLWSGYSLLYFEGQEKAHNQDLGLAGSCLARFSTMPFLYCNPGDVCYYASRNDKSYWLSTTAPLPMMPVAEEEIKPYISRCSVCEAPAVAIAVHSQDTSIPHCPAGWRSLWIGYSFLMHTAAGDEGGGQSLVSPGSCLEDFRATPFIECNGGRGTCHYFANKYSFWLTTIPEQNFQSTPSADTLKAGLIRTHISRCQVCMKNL
row,Substance,fold adherence to collagen over the negative control (E. coli with pCC1.3) [fold]
1,Moraxella catarrhalis strain O12E Hag protein (natural protein),35
2,Moraxella catarrhalis strain O35E Hag protein (wild type) (natural protein),80
3,Moraxella catarrhalis strain V1171 Hag protein (natural protein),35
